Protein stability index data for 26 sequences are collected here from the supplement of paper PMC9732359.

± gives the uncertainty stated by the source.

This data set can be described thus: protein stability index of a GFP-peptide fusion (yeast GPS) (PSI 1-4); higher = more stable; sorted into four equal gates, so the index is relative within each strain. The method in brief: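 Sequencing reads from sorted gates were used to score each peptide. The library consisted of tiled 17-residue yeast protein peptides fused downstream of GFP on a Cherry-expressing plasmid, pooled and carried in yeast. Mid-log cultures in leucine-free medium were split into four equal gates by GFP/Cherry ratio, and each gate's plasmids were PCR-amplified and Illumina-sequenced. The protein stability index adds up, over all gates, the read frequency multiplied by the gate number.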

ANLPWLGKAQNWAKFTA [RPN2] came in with a protein stability index (doa10∆) of 3.34 ± 0.085, a protein stability index (pdr5∆) of 3.39 ± 0.091, a protein stability index (san1∆) of 3.11 ± 0.087 and a protein stability index (ubr1∆) of 3.52 ± 0.082.
SSSPLAMSETLSKVSLL [PRE8]: the protein stability index is, setting by setting: (doa10∆) 2.53 ± 0.071; (pdr5∆) 2.83 ± 0.084; (san1∆) 2.67 ± 0.1; (ubr1∆) 2.32 ± 0.059.
The like results for KEIYTTLGNQMLSAHNI [YJR042W/NUP85] were, in that order, 2.85 ± 0.099, 2.82 ± 0.077, 3.12 ± 0.079 and 3.08 ± 0.063.
The like results for SVQTFGKKKSATAVAHV [RPS16A] were, in that order, 2.37 ± 0.065, 2.49 ± 0.069, 2.19 ± 0.11 and 2.1 ± 0.069.
As to PVVINLDAKNKVFVPPK [RPO31], the protein stability index by setting is: (doa10∆) 2.93 ± 0.12; (pdr5∆) 3.13 ± 0.13; (san1∆) 3.33 ± 0.11; (ubr1∆) 2.95 ± 0.15.
Taken in the same sequence, the figures for APKWYPSEDVAAPKKTR [RPL6B] were 2.13 ± 0.093, 2.09 ± 0.065, 1.87 ± 0.092 and 1.98 ± 0.1.
As to MRLIKRVRAESLHSNSF [YJL039C/NUP192], the protein stability index by setting is: (doa10∆) 2.12 ± 0.11; (pdr5∆) 1.64 ± 0.14; (ubr1∆) 2.44 ± 0.12.
In the case of FEAQIDSVEFIFQAKRN [RPN10], the protein stability index amounted to 2.32 ± 0.11 (doa10∆), 2.67 ± 0.082 (pdr5∆), 2.45 ± 0.13 (san1∆) and 2.66 ± 0.1 (ubr1∆).
Taken in the same sequence, the figures for NSAIIQNLRKELLIYKK [YIL149C/MLP2] were 3.14 ± 0.084, 2.6 ± 0.11, 3.23 ± 0.078 and 3.14 ± 0.053.
The like results for LSIDKVLKKPNRAMEYD [RET1] were, in that order, 3.01 ± 0.18, 2.56 ± 0.16, 3.18 ± 0.2 and 1.98 ± 0.28.
The like results for RLENKLSEIESLDEILL [SRP68] were, in that order, 2.97 ± 0.095, 2.99 ± 0.11, 2.92 ± 0.11 and 3 ± 0.085.
For the sequence GNAVTVTEDGTVVTVVS [RPL22A], the protein stability index was 1.38 ± 0.044 (doa10∆), 1.67 ± 0.078 (pdr5∆), 1.45 ± 0.11 (san1∆) and 1.84 ± 0.065 (ubr1∆).
Taken in the same sequence, the figures for ARERKTATYNDNMSEEQ [SNF2] were 3.13 ± 0.11, 2.91 ± 0.11, 3.46 ± 0.11 and 3.22 ± 0.085.
For the sequence SKRLPLRFPEHTSSGSV [BRR2], the protein stability index is 2.9 ± 0.096 (doa10∆), 2.97 ± 0.083 (pdr5∆), 2.74 ± 0.14 (san1∆) and 2.34 ± 0.065 (ubr1∆).
Consider ILLAGRFRGKRVVYLKH [RPL6A], for which the protein stability index (doa10∆) was 1.69 ± 0.078, the protein stability index (pdr5∆) is 2.17 ± 0.061, the protein stability index (san1∆) amounted to 2.04 ± 0.1 and the protein stability index (ubr1∆) is 2.12 ± 0.056.
In the case of LLGIDATVPSGRPETYI [RPO31], the protein stability index by setting is: (doa10∆) 2.71 ± 0.15; (pdr5∆) 2.32 ± 0.15.
FLNDVIPTTKNLRLLVE [DLS1]: the protein stability index by setting is: (doa10∆) 3.28 ± 0.091; (pdr5∆) 3.16 ± 0.11; (san1∆) 2.88 ± 0.081; (ubr1∆) 3.47 ± 0.087.
As to RRLPEDESYARAYRIIR [QCR7], the protein stability index by setting is: (doa10∆) 2.81 ± 0.056; (pdr5∆) 2.72 ± 0.061; (san1∆) 2.53 ± 0.043; (ubr1∆) 2.42 ± 0.043.
Taken in the same sequence, the figures for TMFTAEQSELLKAQITS [SNF2] were 2.19 ± 0.046, 2.5 ± 0.056, 2.57 ± 0.058 and 2.49 ± 0.036.
The like results for AAAQAQSKIDLTKKKNE [SEM1] were, in that order, 2.9 ± 0.079, 2.83 ± 0.096, 2.94 ± 0.082 and 2.87 ± 0.083.
Taken in the same sequence, the figures for KFADGFLIHSGQPVNDF [RPS3] were 2.67 ± 0.059, 3.07 ± 0.097, 3.22 ± 0.074 and 3.06 ± 0.087.
Sequence HRWGTKKLPRKTHRGLR [RPL3] showed a protein stability index (doa10∆) of 3.32 ± 0.11, a protein stability index (pdr5∆) of 3.04 ± 0.13, a protein stability index (san1∆) of 3.12 ± 0.084 and a protein stability index (ubr1∆) of 3.34 ± 0.061.
The like results for NENETRDKVCKQINEAR [PGD1] were, in that order, 3.14 ± 0.14, 3.58 ± 0.19, 3.28 ± 0.079 and 3.09 ± 0.1.
The like results for KYNVNISALTQTEIKDI [PRP8] were, in that order, 2.6 ± 0.082, 2.57 ± 0.083, 2.18 ± 0.067 and 2.75 ± 0.051.
Taken in the same sequence, the figures for QLTSLEKDCSLRAIEKN [YIL149C/MLP2] were 2.58 ± 0.068, 2.8 ± 0.064, 2.98 ± 0.058 and 3.06 ± 0.047.
Regarding QEPELSLDQGDAEEDSQ [SMC4], the protein stability index (doa10∆) worked out at 3.45 ± 0.16 and the protein stability index (ubr1∆) worked out at 3.02 ± 0.14.
